Data taken from US7001748B2, “Methods of making polyketides using hybrid polyketide synthases” (The Board of Trustees of the Leland Stanford Junior …, priority 1999, dated 2006).

What was measured:
[1] = test system: (5)M2+TE, (5)M5+TE, and (5)M6+TE; details: Wu et al. 2000; cited from earlier work
module 5+TE = biological target: T1, module 5+TE (Saccharopolyspora erythraea, UniProt Q03133); details: diffusive loading, shown earlier; cited from earlier work
T1 construct: a single module of the DEBS PKS fused to the thioesterase (TE) termination region of module 6; thioesterase (TE) domain of DEBS (end of the same DEBS3 polypeptide); made in house; host or cells: E. coli BL21(DE3) co-expressing B. subtilis sfp

(5)M3+TE = biological target: T2, (5)M3+TE (Saccharopolyspora erythraea, UniProt Q03132+Q03133); details: previously shown; cited from earlier work
T2 construct: (5)M3+TE: module 3 with N-terminal linker from module 5; N-terminal interpolypeptide linker of DEBS module 5 (start of DEBS3, Q03133); His6 (C); made in house; host or cells: E. coli BL21(DE3) co-expressing B. subtilis sfp

module 2+TE = biological target: T3, module 2+TE (Saccharopolyspora erythraea, UniProt Q03131+Q03133); details: diffusive loading, shown earlier; cited from earlier work
T3 construct: a single module of the DEBS PKS fused to the thioesterase (TE) termination region of module 6; made in house; host or cells: E. coli BL21(DE3) co-expressing B. subtilis sfp

(3)M3+TE = biological target: T4, (3)M3+TE (Saccharopolyspora erythraea, UniProt Q03132+Q03133); details: previously shown; cited from earlier work
T4 construct: encodes module 3 of DEBS (M3) with its own N-terminal linker and with the thioesterase fused to the C-terminus; natural N-terminal interpolypeptide linker of module 3 (start of DEBS2, ahead of the Module 3 feature); His6 (C); made in house; host or cells: E. coli BL21(DE3) co-expressing B. subtilis sfp

module 6+TE = biological target: T5, module 6+TE (Saccharopolyspora erythraea, UniProt Q03133, DEL53-1503); details: diffusive loading, shown earlier; cited from earlier work
T5 construct: a single module of the DEBS PKS fused to the thioesterase (TE) termination region of module 6; made in house; host or cells: E. coli BL21(DE3) co-expressing B. subtilis sfp

[2] = test system: (5)M2+TE, (5)M5+TE, and (5)M6+TE; assay: Diketide incorporation, statements made for all three modules together; type: biochemical; details: control studies, data not shown
Method: Qualitative Substrate Incorporation Assays. The reaction buffer for the diketide incorporation assays contained 400 mM NaH2PO4 (pH 7.2), 2.5 mM DTT, 1 mM ETDA, 20% glyercol (reaction buffer C). 1 μM module, 20 μM acyl-ACP, 500 μMDL-[2-^14C]-methylmalonyl CoA (ARC), and 4 mM NADPH (Sigma) were incubated in 20 μL of the reaction buffer at 30° C. for 1.5 h. The reactions were either spotted directly onto a TLC plate (Whatman 250 μM silica gel, UV254), or first extracted with EtOAc followed by spotting of the organic extracts on a TLC plate. The TLC plates were resolved using 60% EtOAc in hexanes, and the radioactive products were visualized on a Packard InstantImager.
Determination of kcat Values. […] To quench the reactions, 20 μL reaction aliquots were mixed with 80 μL of 12.5% SDS. kcat values for the acyl-ACP substrates were determined by measuring steady-state saturating rates at multiple substrate concentrations (varying from 40 to 90 μM 4). […]
Qualitative Assays of Diketide Incorporation by Acyl-ACPs. […] 2000, 122, 4847-4852 (It should be noted that elongation of 4c and 4d by modules 5+TE and 6+TE yielded minor quantities of unreduced triketide lactones, indicating less efficient β-ketoreductase activity on these two anti-diketide substrates than on the two syn-diketide substrates.). […]

[3] = biological target: T6, individually assayed modules, including M3+TE (Saccharopolyspora erythraea, UniProt Q03132+Q03133); assay: Effect of synthetic peptide on individually assayed modules; type: biochemical
T6 construct: encodes module 3 of DEBS (M3) with its own N-terminal linker and with the thioesterase fused to the C-terminus; natural N-terminal interpolypeptide linker of module 3 (start of DEBS2, ahead of the Module 3 feature); His6 (C); made in house; host or cells: E. coli BL21(DE3) co-expressing B. subtilis sfp
Method: In Vitro Polyketide Production. Assays of individual modules contained 1.0 μM protein, 1-10 mM N-acetylcysteamine thioester of the “natural” (2S,3R)-2-methyl-3-hydroxypentanoic acid diketide (NDK) (1), 4 mM NADPH, 440 mM sodium phosphate, 1 mM EDTA, 2.5 mM dithiothreitol (DTT), and 20% w/v glycerol, pH 7.2, in 80 μL. Reactions with M2 or M2(4) included 0.3 mM ^14C-methylmalonyl-CoA (specific activity adjusted to 10.4 mCi/mmol), and those with M3+TE or (5)M3+TE included 0.5 mM ^14C-methylmalonyl-CoA (specific activity reduced to 1.1 mCi/mmol). [M2(4) refers to a derivative of M2 in which the C-terminal linker has been replaced with its counterpart from module 4, whereas (5)M3 refers to a derivative of M3 in which the N-terminal linker has been replaced with its counterpart from module 5 (see FIG. 4).] Both concentrations of methylmalonyl-CoA were saturating, but different concentrations were needed due to the disparate rates of turnover between the modules with and without the thioesterase. The reaction mixtures were preincubated to 30° C. and started with the addition of the methylmalonyl-CoA. […] Product formation was quantified by comparison with standards of the labeled methylmalonyl-CoA. […]

M2(4) and (5)M3+TE = biological target: T7, M2(4) and (5)M3+TE (Saccharopolyspora erythraea, UniProt Q03131+Q03132); assay: Inhibition of tetraketide production by synthetic peptide, M4-M5 linker pair; type: biochemical; details: peptide concentrations up to 100 μM
T7 construct: Plasmid pST179 encodes a derivative of M2 containing the C-terminal linker of DEBS module 4 (M4); made in house; host or cells: E. coli BL21(DE3) co-expressing B. subtilis sfp
Method: (§1) Inhibition of Tetraketide Production. The ability of the synthetic peptide to inhibit the transfer reaction, and thus the production of tetraketide, was tested under the same reaction conditions described for the two module coincubations. The concentrations of M2 and M3+TE were both 1.0 μM, and the concentrations of M2(4) and (5)M3+TE were 0.5 and 1.0 μM, respectively. The only difference was the addition of the peptide at concentrations ranging from 1 to 100 μM to the assay containing M2 and M3+TE [or alternatively M2(4) and (5)M3+TE]. For greater accuracy, each inhibition assay was performed side by side with a control lacking inhibitor. The effect of the inhibitor was thus determined by dividing the inhibited rate by the control rate.

[4] = CD spectroscopy of the M3 N-terminal peptide; type: physicochemical
Method: CD Spectroscopy. The CD spectrum of the M3 N-terminal peptide was recorded in a 1-mm path-length cell at a sample concentration of 100 μM in phosphate-buffered saline (PBS; 0.15 M KCl, 25 mM phosphate, pH 6.9). Measurements were made using an Aviv 62DS spectropolarimeter. Concentration was determined by tyrosine absorbance at 275 nm in 8 M guanidine hydrochloride.

[5] = biological target: T8, M2 and M3+TE (Saccharopolyspora erythraea); assay: Inhibition of tetraketide production by synthetic peptide, M2-M3 linker pair; type: biochemical; details: peptide 1 to 100 μM, 1.0 μM M2 and M3+TE
T8 construct: Plasmid pBP19 contains module 2 of DEBS (M2) and is a derivative of pRSG64; made in house; host or cells: E. coli BL21(DE3) co-expressing B. subtilis sfp
Method: as §1

[6] = listed as N-terminal linker of module 3
[7] = listed as synthetic peptide mimic of the N-terminal linker of M3

CCC(O)C(C)C(=O)SCCNC(C)=O (stereo not drawn) [2a]
incorporation of NAC thioester (qualitative) [1]: substrates for the three modules | kcat (elongation rate constant), NAC thioester substrate (module 5+TE): 0.00417 s⁻¹ | incorporation of NAC thioester (qualitative) ((5)M3+TE): readily incorporated and elongated | kcat, NAC thioester substrate (module 2+TE): 0.0767 s⁻¹ | incorporation of NAC thioester (qualitative) ((3)M3+TE): readily incorporated and elongated | kcat, NAC thioester substrate (module 6+TE): 0.283 s⁻¹

CCC(O)C(C)C(=O)SCCNC(=O)CCNC(=O)C(O)C(C)(C)COP(=O)(O)OP(=O)(O)OCC1OC(n2cnc3c(N)ncnc32)C(O)C1OP(=O)(O)O (stereo not drawn) [5a]
CoA thioester compared with NAC thioester 2a as substrate [2]: approximately equivalent substrates

H2N-MTDSEKVAEYLRRATLDLRAARQRIRELESD-amide (H-MTDSEKVAEYLRRATLDLRAARQRIRELESD-NH2) [M3 N-term]
inhibitory effect upon individually assayed modules [3]: no inhibitory effect | inhibition of tetraketide lactone 2 formation (M2(4) and (5)M3+TE; [6]): No inhibitory effect | inhibition of tetraketide lactone 2 formation (M2(4) and (5)M3+TE; [7]): no such effect | helical content ([4]; 100 μM in PBS pH 6.9, listed as N-terminal linker peptide of M3): approximately 50% | helical content ([4]; 100 μM in PBS pH 6.9, listed as peptide mimic): ca. 50% | inhibition of tetraketide lactone 2 formation [5, 6]: could inhibit the formation of 2 | inhibition of tetraketide lactone 2 formation ([5]; listed as peptide corresponding to the N-terminal linker of module 3): shown to inhibit the formation of tetraketide lactone 2 | inhibition of tetraketide lactone 2 formation [5, 7]: lowered the overall rate of tetraketide production in a dose-dependent fashion
